Experimental data taken from US20250154283A1 (published 2025).
Each block holds one binder with its values, some of them ahead of it.

How the values were obtained:
[1] = target: T1, biotinylated human VWF cysteine knot (CK) domain construct (human, biotin on the in vitro biotinylation tag (residue not stated); one N-glycan); experiment: SPR, scFv captured on anti-SV5, pH 7.4; apparent Kd
T1 construct: Disulfide-linked homodimer; also called biotinylated human VWF CK domain; human VWF CK domain construct
T1 chain: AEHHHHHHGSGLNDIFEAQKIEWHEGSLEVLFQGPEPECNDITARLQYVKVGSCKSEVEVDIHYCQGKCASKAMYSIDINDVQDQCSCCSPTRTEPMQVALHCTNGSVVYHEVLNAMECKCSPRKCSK

[2] = target: human plasma-derived von Willebrand Factor (VWF)
[3] = target: T2, human plasma-derived von Willebrand Factor (VWF) (human, UniProt P04275 764-2813); experiment: VWF:FVIIIB enzyme immunoassay, FVIII binding capacity of plasma VWF after incubation with 200 or 600 nM antibody; FVIII as the partner tested
T2 construct: also called pd-VWF; human plasma-derived VWF

[4] = target: T3, His-StrepTagII-HRV3C-cyno VWF-CK-HA-tag (cynomolgus monkey); experiment: solution-phase equilibrium binding, unbound antibody by ELISA
T3 construct: also called recombinant cyno CK domain; cyno CK
T3 chain: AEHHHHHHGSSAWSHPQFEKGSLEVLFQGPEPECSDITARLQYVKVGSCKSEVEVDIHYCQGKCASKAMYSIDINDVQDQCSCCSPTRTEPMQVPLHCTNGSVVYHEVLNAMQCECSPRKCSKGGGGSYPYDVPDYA

- Kd [1]: 0.05 nM
B1: Lib1_P1_A9_scFv (scFv, not shown: small tags and cut ends)
scFv: QVQLVQSGAEVKKPGASVKVSCKVSGDTLSSYGIHWVRQAPGKGLEWMGGSIPSFGTAIYAQKFQGRVTMTEDTSTDTAYMELSSLKSEDTAVYYCTSEGPWLPFFSFDYWGQGTLVTVSSSGGSTITSYNVYYTKLSSSGTDIQMTQSPSSVSASVGDRVTITCRASQGISRNLAWYQQKPGKAPKLLIYKASSLASGVPSRFSGSGSGTDFTLTISSLQPEDFANYYCQQSFSTPVTFGGGTKVEIK
notes: soluble scFv, VH-linker-VL, expressed in S. cerevisiae (applies to all 63 scFvs)

B2: ADAM Metallopeptidase With Thrombospondin Type 1 Motif 13 (ADAMTS13) (protein)
chain: AAGGILHLELLVAVGPDVFQAHQEDTERYVLTNLNIGAELLRDPSLGAQFRVHLVKMVILTEPEGAPNITANLTSSLLSVCGWSQTINPEDDTDPGHADLVLYITRFDLELPDGNRQVRGVTQLGGACSPTWSCLITEDTGFDLGVTIAHEIGHSFGLEHDGAPGSGCGPSGHVMASDGAAPRAGLAWSPCSRRQLLSLLSAGRARCVWDPPRPQPGSAGHPPDAQPGLYYSANEQCRVAFGPKAVACTFAREHLDMCQALSCHTDPLDQSSCSRLLVPLLDGTECGVEKWCSKGRCRSLVELTPIAAVHGRWSSWGPRSPCSRSCGGGVVTRRRQCNNPRPAFGGRACVGADLQAEMCNTQACEKTQLEFMSQQCARTDGQPLRSSPGGASFYHWGAAVPHSQGDALCRHMCRAIGESFIMKRGDSFLDGTRCMPSGPREDGTLSLCVSGSCRTFGCDGRMDSQQVWDRCQVCGGDNSTCSPRKGSFTAGRAREYVTFLTVTPNLTSVYIANHRPLFTHLAVRIGGRYVVAGKMSISPNTTYPSLLEDGRVEYRVALTEDRLPRLEEIRIWGPLQEDADIQVYRRYGEEYGNLTRPDITFTYFQPKPRQAWVWAAVRGPCSVSCGAGLRWVNYSCLDQARKELVETVQCQGSQQPPAWPEACVLEPCPPYWAVGDFGPCSASCGGGLRERPVRCVEAQGSLLKTLPPARCRAGAQQPAVALETCNPQPCPARWEVSEPSSCTSAGGAGLALENETCVPGADGLEAPVTEGPGSVDEKLPAPEPCVGMSCPPGWGHLDATSAGEKAPSPWGSIRTGAQAAHVWTPAAGSCSVSCGRGLMELRFLCMDSALRVPVQEELCGLASKPGSRREVCQAVPCPARWQYKLAACSVSCGRGVVRRILYCARAHGEDDGEEILLDTQCQGLPRPEPQEACSLEPCPPRWKVMSLGPCSASCGLGTARRSVACVQLDQGQDVEVDEAACAALVRPEASVPCLIADCTYRWHVGTWMECSVSCGDGIQRRRDTCLGPQAQAPVPADFCQHLPKPVTVRGCWAGPCVGQGTPSLVPHEEAAAPGRTTATPAGASLEWSQARGLLFSPAPQPRRLLPGPQENSVQSSACGRQHLEPTGTIDMRGPGQADCAVAIGRPLGEVVTLRVLESSLNCSAGDMLLLWGRLTWRKMCRKLLDMTFSSKTNTLVVRQRCGRPGGGVLLRYGSQLAPETFYRECDMQLFGPWGEIVSPSLSPATSNAGGCRLFINVAPHARIAIHALATNMGAGTEGANASYILIRDTHSLRTTAFHGQQVLYWESESSQAEMEFSEGFLKAQASLRGQYWTLQSWVPEMQDPQSWKGKEGT
- VWF multimer distribution (LMW/IMW/HMW) after ristocetin, in the presence of 600 nM Lib1_P1_A6 OA [2]: The same shift in VWF multimer pattern was observed when plasma was treated with ristocetin in the presence of 600 nM antibody including Lib1_P1_A9 and Lib1_P1_A6
- VWF multimer distribution (LMW/IMW/HMW) after ristocetin, in the presence of 600 nM Lib1_P1_A9 OA [2]: The same shift in VWF multimer pattern was observed when plasma was treated with ristocetin in the presence of 600 nM antibody including Lib1_P1_A9 and Lib1_P1_A6

- VWF:FVIII level (% of untreated donor-matched plasma) [3]: > 80%
- fold change in Kd, cyno CK against human CK [4]: < 2 fold
B3: Lib1_P1_A9 OA (antibody, human IgG4 S228P, kappa, F234A L235A)
heavy: QVQLVQSGAEVKKPGASVKVSCKVSGDTLSSYGIHWVRQAPGKGLEWMGGSIPSFGTAIYAQKFQGRVTMTEDTSTDTAYMELSSLKSEDTAVYYCTSEGPWLPFFSFDYWGQGTLVTVSSASTKGPSVFPLAPCSRSTSESTAALGCLVKDYFPEPVTVSWNSGALTSGVHTFPAVLQSSGLYSLSSVVTVPSSSLGTKTYTCNVDHKPSNTKVDKRVESKYGPPCPPCPAPEAAGGPSVFLFPPKPKDTLMISRTPEVTCVVVDVSQEDPEVQFNWYVDGVEVHNAKTKPREEQFNSTYRVVSVLTVLHQDWLNGKEYKCKVSNKGLPSSIEKTISKAKGQPREPQVYTLPPSQEEMTKNQVSLSCAVKGFYPSDIAVEWESNGQPENNYKTTPPVLDSDGSFFLVSRLTVDKSRWQEGNVFSCSVMHEALHNHYTQKSLSLSLG
chain: ESKYGPPCPPCPAPEAAGGPSVFLFPPKPKDTLMISRTPEVTCVVVDVSQEDPEVQFNWYVDGVEVHNAKTKPREEQFNSTYRVVSVLTVLHQDWLNGKEYKCKVSNKGLPSSIEKTISKAKGQPREPQVYTLPPSQEEMTKNQVSLWCLVKGFYPSDIAVEWESNGQPENNYKTTPPVLDSDGSFFLYSRLTVDKSRWQEGNVFSCSVMHEALHNHYTQKSLSLSLG
light: DIQMTQSPSSVSASVGDRVTITCRASQGISRNLAWYQQKPGKAPKLLIYKASSLASGVPSRFSGSGSGTDFTLTISSLQPEDFANYYCQQSFSTPVTFGGGTKVEIKRTVAAPSVFIFPPSDEQLKSGTASVVCLLNNFYPREAKVQWKVDNALQSGNSQESVTEQDSKDSTYSLSSTLTLSKADYEKHKVYACEVTHQGLSSPVTKSFNRGEC
notes: also called monovalent (one-arm) Lib1_P1_A9

- VWF:FVIII level (% of untreated donor-matched plasma) [3]: > 80%
- fold change in Kd, cyno CK against human CK [4]: < 2 fold
B4: Lib1_P1_G3 OA (antibody, human IgG4 S228P, kappa, F234A L235A)
heavy: QVQLVQSGAEVKKPGASVKVSCKVSGYTSRQYIHWVRQAPGKGLEWMGWVTPIFGTTNYAQKFQGRVTMTEDTSTDTAYMELSSLKSEDTAVYYCAREWTGTTAFDIWGQGTLVTVSSASTKGPSVFPLAPCSRSTSESTAALGCLVKDYFPEPVTVSWNSGALTSGVHTFPAVLQSSGLYSLSSVVTVPSSSLGTKTYTCNVDHKPSNTKVDKRVESKYGPPCPPCPAPEAAGGPSVFLFPPKPKDTLMISRTPEVTCVVVDVSQEDPEVQFNWYVDGVEVHNAKTKPREEQFNSTYRVVSVLTVLHQDWLNGKEYKCKVSNKGLPSSIEKTISKAKGQPREPQVYTLPPSQEEMTKNQVSLSCAVKGFYPSDIAVEWESNGQPENNYKTTPPVLDSDGSFFLVSRLTVDKSRWQEGNVFSCSVMHEALHNHYTQKSLSLSLG
chain: B3 chain
light: DIQMTQSPSSVSASVGDRVTITCRASQDIGHYLAWYQQKPGKAPKLLIYAASNRASGVPSRFSGSGSGTDFTLTISSLQPEDFANYYCQQGYSAPYGFGGGTKVEIKRTVAAPSVFIFPPSDEQLKSGTASVVCLLNNFYPREAKVQWKVDNALQSGNSQESVTEQDSKDSTYSLSSTLTLSKADYEKHKVYACEVTHQGLSSPVTKSFNRGEC
notes: monovalent one-arm human IgG4

- VWF:FVIII level (% of untreated donor-matched plasma) [3]: > 80%
- fold change in Kd, cyno CK against human CK [4]: < 2 fold
B5: Lib1_P1_A6 OA (antibody, human IgG4 S228P, kappa, F234A L235A)
heavy: QVQLVQSGAEVKKPGASVKVSCKVSGSTFSNYAIHWVRQAPGKGLEWMGGIVPLSGTAIYAQKFQGRVTMTEDTSTDTAYMELSSLKSEDTAVYYCARDQGESSGWYAIYYGMDVWGQGTTVTVSSASTKGPSVFPLAPCSRSTSESTAALGCLVKDYFPEPVTVSWNSGALTSGVHTFPAVLQSSGLYSLSSVVTVPSSSLGTKTYTCNVDHKPSNTKVDKRVESKYGPPCPPCPAPEAAGGPSVFLFPPKPKDTLMISRTPEVTCVVVDVSQEDPEVQFNWYVDGVEVHNAKTKPREEQFNSTYRVVSVLTVLHQDWLNGKEYKCKVSNKGLPSSIEKTISKAKGQPREPQVYTLPPSQEEMTKNQVSLSCAVKGFYPSDIAVEWESNGQPENNYKTTPPVLDSDGSFFLVSRLTVDKSRWQEGNVFSCSVMHEALHNHYTQKSLSLSLG
chain: B3 chain
light: DIQMTQSPSSVSASVGDRVTITCRASQGIGTWLAWYQQKPGKAPKLLIYGSSSRASGVPSRFSGSGSGTDFTLTISSLQPEDFANYYCQQSYGKPTFGGGTKVEIKRTVAAPSVFIFPPSDEQLKSGTASVVCLLNNFYPREAKVQWKVDNALQSGNSQESVTEQDSKDSTYSLSSTLTLSKADYEKHKVYACEVTHQGLSSPVTKSFNRGEC
notes: monovalent one-arm human IgG4; also called monovalent (one-arm) Lib1_P1_A6
